Measured values reported in patent publication US20030119102A1.

Target: T1, rat Kv4.2 α-subunit (rat) (UniProt Q63881)
T1 sequence (looked up): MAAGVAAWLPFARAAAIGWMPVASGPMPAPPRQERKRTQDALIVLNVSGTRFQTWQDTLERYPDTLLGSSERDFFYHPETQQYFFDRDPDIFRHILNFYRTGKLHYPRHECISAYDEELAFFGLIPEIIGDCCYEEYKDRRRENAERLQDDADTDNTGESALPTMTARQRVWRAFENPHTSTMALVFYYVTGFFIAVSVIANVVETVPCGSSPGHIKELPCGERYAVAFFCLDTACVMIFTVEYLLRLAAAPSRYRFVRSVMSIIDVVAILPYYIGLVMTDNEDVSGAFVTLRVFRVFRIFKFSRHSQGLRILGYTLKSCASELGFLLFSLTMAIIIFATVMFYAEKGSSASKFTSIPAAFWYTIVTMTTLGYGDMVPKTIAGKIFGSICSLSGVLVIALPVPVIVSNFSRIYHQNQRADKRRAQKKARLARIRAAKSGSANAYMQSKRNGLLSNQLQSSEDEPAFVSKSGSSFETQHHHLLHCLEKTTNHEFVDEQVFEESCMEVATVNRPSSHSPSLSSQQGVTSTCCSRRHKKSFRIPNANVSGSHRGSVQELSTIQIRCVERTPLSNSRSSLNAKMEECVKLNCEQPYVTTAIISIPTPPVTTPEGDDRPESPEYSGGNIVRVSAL
Assay: cell-based or functional assay

KChIP2ΔN2-67
Inactivation time constant (ms, at 50 mV), CHO cells (rKv4.2 + vector: 28.2): 110 ms
Peak Current (nA/cell at 50 mV), CHO cells, patch clamp (rKv4.2 + vector: 0.60): 5.8 nA/cell
Peak Current Density (pA/pF at 50 mV), CHO cells (rKv4.2 + vector: 25.5): 203 pA/pF
Recovery from Inactivation Time constant, CHO cells (rKv4.2 + vector: 272.2): 36.1 ms
